Data from the nanobody polyreactivity screen of Harvey et al. (2022).

Assay: yeast display, Sf9 membrane polyspecificity reagent, FACS + sequencing; frameworks hold sequencing errors
How it was run: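 In a synthetic yeast display library (Saccharomyces cerevisiae BJ5465), nanobody expression was induced with galactose for 36–48 hours. FACS gates were set low and high (top ~1%) using anti-HA fluorescence for expression and streptavidin fluorescence for binding of the Sf9 membrane reagent. Each polyreactivity label is drawn from the gate of origin.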

Row | Sequence | polyreactivity (PSR sort gate)
1 | QVQLVESGGGLVQAGGSLRLSCAASGSILWLNAMGWYRQAPGKERELVADITRGGSTYYADSVKGRFTISRDNAKNTVYLQMNSLKPEDTAVYYCAAKRGKTYQRFDYWGQGTQVTVSS | high polyreactivity
2 | QVQLVESGGGLVQAGGSLRLSCAASGSILWSYAMGWYRQAPGKERELVAAISGSTGSTYYADSVKGRFTISRDNAKNTVYLQMNSLKPEDTAVYYCAAEYYEDYDDYDYWGQGTQVTVSS | low polyreactivity
3 | QVQLVESGGGLVQAGGSLRLSCAASGSILWSYAMGWYRQAPGKERELVAAITSGGSTYYADSVKGRFTISRDNAKNTVYLQMNSLKPEDTAVYYCAADRWRDFWFNEEYWGQGTQVTVSS | high polyreactivity
4 | QVQLVESGGGLVQAGGSLRLSCAASGSILYISARGWYRQAPGKERELVASINSGASTNYADSVKGRFTISRDNAKNTVYLQMNSLKPEDTAVYYCAKSIVNPPHGFKDFDYWGQGTQVTLSS | low polyreactivity
5 | QVQLVESGGGLVQAGGSLRLSCAASGSILYIYAMGWYRQAPGKVRELVAAITGSGGTTNYADSVKGRFTISRDNAKNTVYLQMNSLKPEDTAVYYCNIGSYYSCYDFWGQGTQVTVSS | low polyreactivity
6 | QVQLVESGGGLVQAGGSLRLSCAASGSILYLNARGWYRQAPGKERELVAGISRRGGRTTYADSVKGRFTISRDNAKNTVYLQMNSLKPEDTAVSYCAVSTAYGYGYWGQGTQVTVSS | high polyreactivity
7 | QVQLVESGGGLVQAGGSLRLSCAASGSILYLYAMGWYRPAPGKERELVAAITRIGGSTYYADSVKGRFTISRDNAKNTVYLQMNSLKPEDTAVYYCAAGGTARDDSWGQGTQVTVSS | low polyreactivity
8 | QVQLVESGGGLVQAGGSLRLSCAASGSILYPYAMGWYRQAPGKERELVAAISRGGSTNYADSVKGRFTISRDNAKDTVYLQMNSLKPEDTAVYYCATAYTRFSQRYEYYVIYWQNDYWGQGTQVTVSS | low polyreactivity
9 | QVQLVESGGGLVQAGGSLRLSCAASGSILYSNAMGWYRQAPGKERELVAVITWGGGSTYYADSVKGRFTISRDNAKNTVFLQMNSLKPEDTAVYYCAARARRGLRAYVELDYWGQGTQVTVSS | low polyreactivity
10 | QVQLVESGGGLVQAGGSLRLSCAASGSILYSYPMGWYRQAPGKERELVAAITGDGASTTYADSVKGRFTISRDNAKNTVYLQLNSLKPEDTAVYYCKAGRESDDVSEGSQRICQFDYWGPGTQVTVSS | low polyreactivity
11 | QVQLVESGGGLVQAGGSLRLSCAASGSILYVYAMGWYRQAPGKEWELVAVITSGGSTNYADSVKGRFTISRDNAKNTVYLQMNSLKPEDTAVYYCAADPYSVYGGDYWGQGTQVTVSS | low polyreactivity
12 | QVQLVESGGGLVQAGGSLRLSCAASGSILYYNAMGWYRQAPGKERELVAAISQRGASTYYADSVKGRFTISRDNAKNTVYLQMNSLKPEDTAVYYCAARTRLTADPRYGISSKMYYWGQGTQVTVSS | high polyreactivity
13 | QVQLVESGGGLVQAGGSLRLSCAASGSILYYNAMGWYRQAPGKERELVAAITSGGSTYADSVKGRFTISRDNAKNTVYLQMNSLKPEDTAVYYCAADLDWYLSDYGTSLEHDYWGQGTQVTVSS | low polyreactivity
14 | QVQLVESGGGLVQAGGSLRLSCAASGSILYYYAMGWYRQAPGKERELVAAITRSGGSTYYADSVKGRITISRDNAKNTVYLQMNSLKPEDTAVYYCAKDAHAYRDLDYWGQGTQVTVSS | low polyreactivity
15 | QVQLVESGGGLVQAGGSLRLSCAASGSIQYYAMGWYRHAPGKERELVAAIRFSGGRTYYADSVKGRFTISRDNAKITVYLQMHSLKPEHTAVYYCAAYRSPRRSGAPSQGKFDYCGQGTQVTVSS | low polyreactivity
16 | QVQLVESGGGLVQAGGSLRLSCAASGSIRHNTIGWYRQAPGKESEFVASISKRGGSTYYADSVKGRFTISRDNAKNTVYLQMNSLKPEDTAVYYCNAGAVTFVGRDYWGQGTQVTVSS | high polyreactivity

Row | Sequence | polyreactivity (PSR sort gate)
17 | QVQLVESGGGLVQAGGSLRLSCAASGSIRSYAMGWYRQAPGKERELVAAITRSGGSTYYADSVKGRFTISRDNAKNTVYLQMNSLKPEDTAVYYCAAEVRGKSRSTRVSYRYDYWGQGTQVTVSS | high polyreactivity
18 | QVQLVESGGGLVQAGGSLRLSCAASGSIRVTNDMGWYRQATGKERELVAAITSIGGSTNYADSVKGRFTISRDNAKNPVYLQMNSLKPEDTAVYYCNVYLGILYKYDYWGQGTQVTVSS | low polyreactivity
19 | QVQLVESGGGLVQAGGSLRLSCAASGSIRYYAMGWYIQAPGKERELVAAISSRGTNTYYADSVKGRFTISRDNAKNTVYLQMNSLKPEDTAVYYCNAVVGLGYNYWGQGTQVTVSS | high polyreactivity
20 | QVQLVESGGGLVQAGGSLRLSCAASGSIRYYAMGWYRQAPGKEREFVAAISRRGSSTNYADSVKGRFTISRDNAKNTVYLQMNRLKPEDTAVYYCARGLDVISYGYDYWGQGTQVTVSS | high polyreactivity
21 | QVQLVESGGGLVQAGGSLRLSCAASGSISAPNAMGWYRQAPGKERELVATINSGGRTNYADSVKGRFTISRDNSKNTVYLQMNSLKPEDTAVYYCNTVFRGAYTYGDVSKYDYWGQGTQVTVSS | low polyreactivity
22 | QVQLVESGGGLVQAGGSLRLSCAASGSISDIYAMGWYRQAPGKERELVASISSGGITNYADSVKGRFTISRDNAKNTVYLQMNSLKPEDTAVYYCAKDRYPISFFYQMEYWGQGTQVTVSS | low polyreactivity
23 | QVQLVESGGGLVQAGGSLRLSCAASGSISEIYAMGWYRQAPGKERELVAAISWSGGRTYYADSVKGRFTISRDNAKNTVYLQMNSLKPEDTAVYYCAARYRGGYYFGYEPYYYWGQGTQVTVSS | high polyreactivity
24 | QVQLVESGGGLVQAGGSLRLSCAASGSISFLYTMGWYRQAPGKERELVAAITGSTASTYYADSVKGRFTISSDYAKNTVYLQMKSLKPEDTAVYYCAAYWYAVGYWVSRDYWGQGTQVTVSS | low polyreactivity
25 | QVQLVESGGGLVQAGGSLRLSCAASGSISGWYAMGWYRQAPGKERELVADISSIAGSTYYADCVKGRFTISRDNAKNTDSLQKNSLKPEDTAVYYGAADRGVDYEYDYWGQGTQVTVSS | low polyreactivity
26 | QVQLVESGGGLVQAGGSLRLSCAASGSISGYYVMGWYRQAPGKERELVAAITWRGGSTYYADSVKGSFTISRDNAKNTVYLQMNSLKPEDTAVYYCNKVPGRRSTFEYWGQGTQVTVSS | high polyreactivity
27 | QVQLVESGGGLVQAGGSLRLSCAASGSISHYAMGWYTQAPGTESELVAAISRRGGSTYYADSVKGRFTISRDNAKNTVYLQLNSLKPEDTAVYYCNAVRAGGYTEFNYWGQGTQVTVSS | high polyreactivity
28 | QVQLVESGGGLVQAGGSLRLSCAASGSISKINAMGWYRQAPGKERELVAAINTGDSTYYADSVKGRFTISRDNAKNTVYLQMNSLKPEDTAVYYCAAEGSPTGYDYWGQGTQVTVSS | low polyreactivity
29 | QVQLVESGGGLVQAGGSLRLSCAASGSISPQNVMGWYRQAPGKERELVAAITWTGTSTYADSVKGSFTISRDNAKNTVYLQMNSLKPEDTAVYYCAARYYAPRWFRYDYWGQGTQVTVSS | low polyreactivity
30 | QVQLVESGGGLVQAGGSLRLSCAASGSISQKYVMGWYRKAPGKERELVAAIRSTGNTYYADSVKGRFTISRDNAKNTVYLQMNSLKPEDTAVYYCAARLYVLRWYPYDYWGQGTQVTVSS | low polyreactivity
31 | QVQLVESGGGLVQAGGSLRLSCAASGSISQPYAMGGYRQAPGKERELVAAIRWSGGSTYYADSVKGRFTISRDNAKNTVYLEMNCLNPEDTAVYYCNKTTYYPSDYVYWGQGTQVTVSS | low polyreactivity
